Test results: article PMC10397247

Experiments:
4H3277-bA = target: T1, 4H3277-bA; test: two-hybrid library CCNG1;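 also: natural log of median RNA to DNA barcode read ratio; higher means stronger binding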
T1 chain: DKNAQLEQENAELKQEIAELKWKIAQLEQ

4H477-bA = target: T2, 4H477-bA; test: two-hybrid library CCNG1;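 also: natural log of median RNA to DNA barcode read ratio; higher means stronger binding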
T2 chain: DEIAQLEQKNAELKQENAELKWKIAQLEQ

4H40-bA = target: T3, 4H40-bA; test: two-hybrid library CCNG1;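 also: natural log of median RNA to DNA barcode read ratio; higher means stronger binding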
T3 chain: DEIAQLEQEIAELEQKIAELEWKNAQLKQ

4H319-bA = target: T4, 4H319-bA; test: two-hybrid library CCNG1;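 also: natural log of median RNA to DNA barcode read ratio; higher means stronger binding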
T4 chain: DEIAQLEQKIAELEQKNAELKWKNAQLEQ

4H741-bA = target: T5, 4H741-bA; test: two-hybrid library CCNG1;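 also: natural log of median RNA to DNA barcode read ratio; higher means stronger binding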
T5 chain: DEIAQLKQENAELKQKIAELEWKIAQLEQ

4H492-bA = target: T6, 4H492-bA; test: two-hybrid library CCNG1;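 also: natural log of median RNA to DNA barcode read ratio; higher means stronger binding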
T6 chain: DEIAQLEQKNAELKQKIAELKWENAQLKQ

4H348-bA = target: T7, 4H348-bA; test: two-hybrid library CCNG1
T7 chain: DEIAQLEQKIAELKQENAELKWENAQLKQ

4H3628-bA = target: T8, 4H3628-bA; test: two-hybrid library CCNG1
T8 chain: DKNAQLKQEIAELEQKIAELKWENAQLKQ

4H591-bA = target: T9, 4H591-bA; test: two-hybrid library CCNG1
T9 chain: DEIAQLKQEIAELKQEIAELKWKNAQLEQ

4H3613-bA = target: T10, 4H3613-bA; test: two-hybrid library CCNG1
T10 chain: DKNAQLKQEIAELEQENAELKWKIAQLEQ

4H906-bA = target: T11, 4H906-bA; test: two-hybrid library CCNG1
T11 chain: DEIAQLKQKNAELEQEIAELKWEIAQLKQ

4H626-bA = target: T12, 4H626-bA; test: two-hybrid library CCNG1
T12 chain: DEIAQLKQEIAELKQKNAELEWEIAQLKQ

4H3926-bA = target: T13, 4H3926-bA; test: two-hybrid library CCNG1
T13 chain: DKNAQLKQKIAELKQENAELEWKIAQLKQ

4H3497-bA = target: T14, 4H3497-bA; test: two-hybrid library CCNG1
T14 chain: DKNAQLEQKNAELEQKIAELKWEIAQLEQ

P11-AA = target: T15, P11-AA; test: two-hybrid library CCmax; conditions: mean of both orientations
T15 chain: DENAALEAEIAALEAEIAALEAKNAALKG

P8-AA = target: T16, P8-AA; test: two-hybrid library CCmax; conditions: mean of both orientations
T16 chain: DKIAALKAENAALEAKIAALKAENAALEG

GCN2_T = test: two-hybrid library CCmax
P3-AA = target: T17, P3-AA; test: two-hybrid library CCmax; conditions: mean of both orientations
T17 chain: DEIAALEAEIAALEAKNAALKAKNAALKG

P10-AA = target: T18, P10-AA; test: two-hybrid library CCmax; conditions: mean of both orientations
T18 chain: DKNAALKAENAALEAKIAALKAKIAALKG

AP8-AA = target: T19, AP8-AA; test: two-hybrid library CCmax
T19 chain: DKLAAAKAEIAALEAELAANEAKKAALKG

P4-AA = target: T20, P4-AA; test: two-hybrid library CCmax; conditions: mean of both orientations
T20 chain: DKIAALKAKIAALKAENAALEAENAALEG

P9-AA = target: T21, P9-AA; test: two-hybrid library CCmax; conditions: mean of both orientations
T21 chain: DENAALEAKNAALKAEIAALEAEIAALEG

P2-AA = target: T22, P2-AA; test: two-hybrid library CCmax; conditions: mean of both orientations
T22 chain: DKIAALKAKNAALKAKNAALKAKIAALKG

P7-AA = target: T23, P7-AA; test: two-hybrid library CCmax; conditions: mean of both orientations
T23 chain: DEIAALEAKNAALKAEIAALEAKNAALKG

P1-AA = target: T24, P1-AA; test: two-hybrid library CCmax; conditions: mean of both orientations
T24 chain: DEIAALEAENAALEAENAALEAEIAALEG

P12-AA = target: T25, P12-AA; test: two-hybrid library CCmax; conditions: mean of both orientations
T25 chain: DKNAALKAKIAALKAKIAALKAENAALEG

DEIAQLEQKIAELEQKNAELKWKNAQLEQ [4H319-bA]
interaction score (4H3277-bA): -0.964
interaction score (4H477-bA): -0.399
interaction score (4H40-bA): -0.44
interaction score (4H319-bA): -0.125
interaction score (4H741-bA): -0.873
interaction score (4H492-bA): -1.05
interaction score (4H348-bA): -0.881

DKNAQLEQKNAELEQKIAELKWEIAQLEQ [4H3497-bA]
interaction score (4H3628-bA): -0.547
interaction score (4H591-bA): -1.08
interaction score (4H3613-bA): -1.15
interaction score (4H906-bA): -1.2
interaction score (4H626-bA): -1.45
interaction score (4H3926-bA): -1.24
interaction score (4H3497-bA): -0.278

DKLAAAKAEIAALEAELAANEAKKAALKG [AP8-AA]
interaction score (P11-AA): -1.41
interaction score (P8-AA): -1.39
interaction score (GCN2_T): -1.88
interaction score (P3-AA): -1.35
interaction score (P10-AA): -0.57
interaction score (AP8-AA): -1.3
interaction score (P4-AA): -1.17
interaction score (P9-AA): -0.718
interaction score (P2-AA): -1.71
interaction score (P7-AA): -1.21
interaction score (P1-AA): -1.78
interaction score (P12-AA): -0.366
